# Assay results published in the Immune Epitope Database (IEDB).
# Experiments:
# Assay in all cases: IEDB peptide-MHC binding, purified MHC/competitive/radioactivity; ≥ and ≤ were set here for values at or beyond the usual limits of such assays
# HLA-A*02:03 = molecular target: HLA-A*02:03
# HLA-A*02:06 = molecular target: HLA-A*02:06
# HLA-A*02:01 = molecular target: HLA-A*02:01
# HLA-A*02:02 = molecular target: HLA-A*02:02
# HLA-A*68:02 = molecular target: HLA-A*68:02
# [1] = source organism: Vaccinia virus WR
# [2] = source organism: Mammarenavirus guanaritoense
# [3] = source organism: Hepacivirus hominis
# [4] = source organism: Mammarenavirus machupoense
sequence,measurement,setting,value
QLFKYVPSA,IC50,HLA-A*02:03; [1],7.8 nM
same,IC50,HLA-A*02:06; [1],349 nM
same,IC50,HLA-A*02:01; [1],7 nM
same,IC50,HLA-A*02:02; [1],12 nM
same,IC50,HLA-A*68:02; [1],1620 nM
LIYDDNIDSI,IC50,HLA-A*02:03; [1],26 nM
same,IC50,HLA-A*02:06; [1],212 nM
same,IC50,HLA-A*02:01; [1],658 nM
same,IC50,HLA-A*02:02; [1],121 nM
same,IC50,HLA-A*68:02; [1],199 nM
AAITLVVISV,IC50,HLA-A*02:03; [1],246 nM
same,IC50,HLA-A*02:06; [1],27 nM
same,IC50,HLA-A*02:01; [1],369 nM
same,IC50,HLA-A*02:02; [1],501 nM
same,IC50,HLA-A*68:02; [1],715 nM
YLLFNHFSV,IC50,HLA-A*02:03; [1],1.6 nM
same,IC50,HLA-A*02:06; [1],0.73 nM
same,IC50,HLA-A*02:01; [1],0.27 nM
same,IC50,HLA-A*02:02; [1],1.2 nM
same,IC50,HLA-A*68:02; [1],39 nM
AAAATCALV,IC50,HLA-A*02:03; [1],9.1 nM
same,IC50,HLA-A*02:06; [1],12 nM
same,IC50,HLA-A*02:01; [1],41 nM
same,IC50,HLA-A*02:02; [1],15 nM
same,IC50,HLA-A*68:02; [1],12 nM
YCNYTRFWYI,IC50,HLA-A*02:03; [2],4340 nM
same,IC50,HLA-A*02:06; [2],81 nM
same,IC50,HLA-A*02:01; [2],322 nM
same,IC50,HLA-A*02:02; [2],1060 nM
same,IC50,HLA-A*68:02; [2],1340 nM
TVPTNDHIPV,IC50,HLA-A*02:03; [1],1890 nM
same,IC50,HLA-A*02:06; [1],515 nM
same,IC50,HLA-A*02:01; [1],1670 nM
same,IC50,HLA-A*02:02; [1],1680 nM
same,IC50,HLA-A*68:02; [1],57 nM
LIAGIILLIL,IC50,HLA-A*02:03; [1],680 nM
same,IC50,HLA-A*02:06; [1],345 nM
same,IC50,HLA-A*02:01; [1],540 nM
same,IC50,HLA-A*02:02; [1],141 nM
same,IC50,HLA-A*68:02; [1],143 nM
NVISKIYTL,IC50,HLA-A*02:03; [1],97 nM
same,IC50,HLA-A*02:06; [1],1.7 nM
same,IC50,HLA-A*02:01; [1],147 nM
same,IC50,HLA-A*02:02; [1],147 nM
same,IC50,HLA-A*68:02; [1],4.6 nM
SMSQELAELL,IC50,HLA-A*02:03; [1],55 nM
same,IC50,HLA-A*02:06; [1],474 nM
same,IC50,HLA-A*02:01; [1],32 nM
same,IC50,HLA-A*02:02; [1],6.2 nM
same,IC50,HLA-A*68:02; [1],1300 nM
YMLVLAEALI,IC50,HLA-A*02:03; [3],228 nM
same,IC50,HLA-A*02:06; [3],512 nM
same,IC50,HLA-A*02:01; [3],152 nM
same,IC50,HLA-A*02:02; [3],107 nM
same,IC50,HLA-A*68:02; [3],974 nM
TLGVYDYLV,IC50,HLA-A*02:03; source organism: SARS-CoV1,936 nM
same,IC50,HLA-A*02:06; source organism: SARS-CoV1,75 nM
same,IC50,HLA-A*02:01; source organism: SARS-CoV1,2.7 nM
same,IC50,HLA-A*02:02; source organism: SARS-CoV1,0.25 nM
same,IC50,HLA-A*68:02; source organism: SARS-CoV1,157 nM
SIYIAVANCV,IC50,HLA-A*02:03; [1],63 nM
same,IC50,HLA-A*02:06; [1],1000 nM
same,IC50,HLA-A*02:01; [1],1460 nM
same,IC50,HLA-A*02:02; [1],534 nM
same,IC50,HLA-A*68:02; [1],306 nM
MMVILPDKI,IC50,HLA-A*02:03; [1],16 nM
same,IC50,HLA-A*02:06; [1],909 nM
same,IC50,HLA-A*02:01; [1],161 nM
same,IC50,HLA-A*02:02; [1],69 nM
same,IC50,HLA-A*68:02; [1],1630 nM
TINVNSLAL,IC50,HLA-A*02:03; [1],1540 nM
same,IC50,HLA-A*02:06; [1],2180 nM
same,IC50,HLA-A*02:01; [1],1530 nM
same,IC50,HLA-A*02:02; [1],1980 nM
same,IC50,HLA-A*68:02; [1],1530 nM
YIAGLKIEEI,IC50,HLA-A*02:03; [1],5.3 nM
same,IC50,HLA-A*02:06; [1],134 nM
same,IC50,HLA-A*02:01; [1],9.5 nM
same,IC50,HLA-A*02:02; [1],8.9 nM
same,IC50,HLA-A*68:02; [1],669 nM
SAFNDDGIYI,IC50,HLA-A*02:03; [1],68 nM
same,IC50,HLA-A*02:06; [1],41 nM
same,IC50,HLA-A*02:01; [1],35 nM
same,IC50,HLA-A*02:02; [1],35 nM
same,IC50,HLA-A*68:02; [1],6.6 nM
YTVEFDRDKV,IC50,HLA-A*02:03; [1],154 nM
same,IC50,HLA-A*02:06; [1],22 nM
same,IC50,HLA-A*02:01; [1],934 nM
same,IC50,HLA-A*02:02; [1],83 nM
same,IC50,HLA-A*68:02; [1],4.5 nM
NIISYIILFI,IC50,HLA-A*02:03; [1],133 nM
same,IC50,HLA-A*02:06; [1],72 nM
same,IC50,HLA-A*02:01; [1],156 nM
same,IC50,HLA-A*02:02; [1],123 nM
same,IC50,HLA-A*68:02; [1],25 nM
IVCIVAAVII,IC50,HLA-A*02:03; [1],1590 nM
same,IC50,HLA-A*02:06; [1],3550 nM
same,IC50,HLA-A*02:01; [1],1960 nM
same,IC50,HLA-A*02:02; [1],1460 nM
same,IC50,HLA-A*68:02; [1],2980 nM
AMPGVLSYV,IC50,HLA-A*02:03; [4],7.3 nM
same,IC50,HLA-A*02:06; [4],22 nM
same,IC50,HLA-A*02:01; [4],8.4 nM
same,IC50,HLA-A*02:02; [4],4.2 nM
same,IC50,HLA-A*68:02; [4],834 nM
NVIGLIVIL,IC50,HLA-A*02:03; [1],2400 nM
same,IC50,HLA-A*02:06; [1],15 nM
same,IC50,HLA-A*02:01; [1],342 nM
same,IC50,HLA-A*02:02; [1],85 nM
same,IC50,HLA-A*68:02; [1],0.17 nM
SQFSYKELYV,IC50,HLA-A*02:03; [1],27 nM
same,IC50,HLA-A*02:06; [1],71 nM
same,IC50,HLA-A*02:01; [1],121 nM
same,IC50,HLA-A*02:02; [1],14 nM
same,IC50,HLA-A*68:02; [1],634 nM
VTLFIDRGSI,IC50,HLA-A*02:03; [1],2250 nM
same,IC50,HLA-A*02:06; [1],3010 nM
same,IC50,HLA-A*02:01; [1],1500 nM
same,IC50,HLA-A*02:02; [1],3830 nM
same,IC50,HLA-A*68:02; [1],14 nM
ALLFLMSFTI,IC50,HLA-A*02:03; source organism: SARS-CoV1,199 nM
same,IC50,HLA-A*02:06; source organism: SARS-CoV1,14 nM
same,IC50,HLA-A*02:01; source organism: SARS-CoV1,1.6 nM
same,IC50,HLA-A*02:02; source organism: SARS-CoV1,0.37 nM
same,IC50,HLA-A*68:02; source organism: SARS-CoV1,1770 nM
FVATFRDMLL,IC50,HLA-A*02:03; [1],18 nM
same,IC50,HLA-A*02:06; [1],4.4 nM
same,IC50,HLA-A*02:01; [1],16 nM
same,IC50,HLA-A*02:02; [1],0.7 nM
same,IC50,HLA-A*68:02; [1],409 nM
TSVDLNAPV,IC50,HLA-A*02:03; [2],841 nM
same,IC50,HLA-A*02:06; [2],26 nM
same,IC50,HLA-A*02:01; [2],464 nM
same,IC50,HLA-A*02:02; [2],65 nM
same,IC50,HLA-A*68:02; [2],0.26 nM
AISAVYFKA,IC50,HLA-A*02:03; [1],525 nM
same,IC50,HLA-A*02:06; [1],149 nM
same,IC50,HLA-A*02:01; [1],41 nM
same,IC50,HLA-A*02:02; [1],3.7 nM
same,IC50,HLA-A*68:02; [1],77 nM
MQVFFGYFA,IC50,HLA-A*02:03; source organism: SARS-CoV1,193 nM
same,IC50,HLA-A*02:06; source organism: SARS-CoV1,1 nM
same,IC50,HLA-A*02:01; source organism: SARS-CoV1,10 nM
same,IC50,HLA-A*02:02; source organism: SARS-CoV1,10 nM
same,IC50,HLA-A*68:02; source organism: SARS-CoV1,12 nM
AIFNNRNLA,IC50,HLA-A*02:03; [1],98 nM
same,IC50,HLA-A*02:06; [1],7.1 nM
same,IC50,HLA-A*02:01; [1],3180 nM
same,IC50,HLA-A*02:02; [1],272 nM
same,IC50,HLA-A*68:02; [1],372 nM
IITILQDIV,IC50,HLA-A*02:03; [1],666 nM
same,IC50,HLA-A*02:06; [1],658 nM
same,IC50,HLA-A*02:01; [1],109 nM
same,IC50,HLA-A*02:02; [1],827 nM
same,IC50,HLA-A*68:02; [1],1070 nM
KTDGAVTSPL,IC50,HLA-A*02:03; [1],400 nM
same,IC50,HLA-A*02:06; [1],347 nM
same,IC50,HLA-A*02:01; [1],1080 nM
same,IC50,HLA-A*02:02; [1],62 nM
same,IC50,HLA-A*68:02; [1],542 nM
YVIPDELIDV,IC50,HLA-A*02:03; [1],14 nM
same,IC50,HLA-A*02:06; [1],12 nM
same,IC50,HLA-A*02:01; [1],23 nM
same,IC50,HLA-A*02:02; [1],18 nM
same,IC50,HLA-A*68:02; [1],350 nM
VLMVDSFDPV,IC50,HLA-A*02:03; [3],12 nM
same,IC50,HLA-A*02:06; [3],31 nM
same,IC50,HLA-A*02:01; [3],33 nM
same,IC50,HLA-A*02:02; [3],13 nM
same,IC50,HLA-A*68:02; [3],1520 nM
RLQMAGVEV,IC50,HLA-A*02:03; [1],531 nM
same,IC50,HLA-A*02:06; [1],4110 nM
same,IC50,HLA-A*02:01; [1],1450 nM
same,IC50,HLA-A*02:02; [1],326 nM
same,IC50,HLA-A*68:02; [1],2510 nM
